Laboratory results: patent US20150344570A1 (published 2015)
Values belong to the binder of their own block, whether it stands above or below them.

How the values were obtained:
[1] = target: T1, FcγRIIIa extracellular domain with C-terminal His tag (human, UniProt P08637 17-208); experiment: SPR (Biacore), one H chain altered; HeCon Ab GpH7-A5/GpH7-B3/GpL16-k0 = 100
[2] = target: T1, FcγRIIIa extracellular domain with …; experiment: SPR (Biacore), both H chains altered; HoCon Ab GpH7-B3/GpL16-k0 = 100

T1 sequence (P08637 17-208): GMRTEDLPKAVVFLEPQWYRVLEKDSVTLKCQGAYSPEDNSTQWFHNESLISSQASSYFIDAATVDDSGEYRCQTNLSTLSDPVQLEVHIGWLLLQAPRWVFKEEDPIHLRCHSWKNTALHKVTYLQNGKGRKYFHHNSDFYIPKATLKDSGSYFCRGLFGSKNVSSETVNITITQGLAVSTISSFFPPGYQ

Ho/Con_3a [2]: 104%
B6: GpH7-B3 variant I336_02A/GpL16-k0 (antibody, human IgG1, kappa)
heavy: not shown
light: DIVMTQSPLSLPVTPGEPASISCQASESLVHSNRNTYLHWYLQKPGQSPQLLIYKVSNRFSGVPDRFSGSGSGTDFTLKISRVEAEDVGVYYCSQNTHVPPTFGQGTKVEIERTVAAPSVFIFPPSDEQLKSGTASVVCLLNNFYPREAKVQWKVDNALQSGNSQESVTEQDSKDSTYSLSSTLTLSKADYEKHKVYACEVTHQGLSSPVTKSFNRGEC
notes: both H chains altered; also called Ho Ab I336_02A

He/Con_3a [1]: 103%
B8: GpH7-A5/GpH7-B3 variant L234_07I/GpL16-k0 (antibody, human IgG1, kappa)
heavy 1: not shown
heavy 2: not shown
light: B6 light
notes: one H chain altered; also called He Ab L234_07I

Ho/Con_3a [2]: 97.7%
B11: GpH7-B3 variant T335_19Q/GpL16-k0 (antibody, human IgG1, kappa)
heavy: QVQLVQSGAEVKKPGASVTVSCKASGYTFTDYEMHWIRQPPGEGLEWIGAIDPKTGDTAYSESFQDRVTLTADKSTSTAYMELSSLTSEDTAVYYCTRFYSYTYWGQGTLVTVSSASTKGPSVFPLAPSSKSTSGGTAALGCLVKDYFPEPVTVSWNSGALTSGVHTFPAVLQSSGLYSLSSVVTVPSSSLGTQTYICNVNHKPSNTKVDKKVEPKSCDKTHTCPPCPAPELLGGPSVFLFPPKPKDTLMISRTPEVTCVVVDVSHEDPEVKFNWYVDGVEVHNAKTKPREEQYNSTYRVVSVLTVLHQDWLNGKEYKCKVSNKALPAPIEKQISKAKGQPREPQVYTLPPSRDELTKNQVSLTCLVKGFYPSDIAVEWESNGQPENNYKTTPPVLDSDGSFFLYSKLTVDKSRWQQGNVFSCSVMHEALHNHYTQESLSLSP
light: B6 light
notes: both H chains altered; also called Ho Ab T335_19Q

He/Con_3a [1]: 103%
B14: GpH7-A5/GpH7-B3 variant A330_07I/GpL16-k0 (antibody, human IgG1, kappa)
heavy 1: not shown
heavy 2: not shown
light: B6 light
notes: one H chain altered; also called He Ab A330_07I

Ho/Con_3a [2]: 107%
B18: GpH7-B3 variant S298_14T/GpL16-k0 (antibody, human IgG1, kappa)
heavy: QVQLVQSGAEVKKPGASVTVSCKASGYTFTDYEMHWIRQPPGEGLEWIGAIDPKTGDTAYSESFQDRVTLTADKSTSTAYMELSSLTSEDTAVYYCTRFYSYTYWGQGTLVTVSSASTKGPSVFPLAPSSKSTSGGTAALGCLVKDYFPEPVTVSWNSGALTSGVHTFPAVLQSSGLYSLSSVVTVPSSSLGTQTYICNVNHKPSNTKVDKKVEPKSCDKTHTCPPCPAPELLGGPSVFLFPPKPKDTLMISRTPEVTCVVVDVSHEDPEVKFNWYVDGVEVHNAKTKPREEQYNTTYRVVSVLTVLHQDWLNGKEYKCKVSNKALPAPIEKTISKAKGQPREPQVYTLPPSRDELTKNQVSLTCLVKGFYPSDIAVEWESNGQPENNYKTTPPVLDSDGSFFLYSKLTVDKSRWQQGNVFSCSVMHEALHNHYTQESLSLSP
light: B6 light
notes: both H chains altered; also called Ho Ab S298_14T

He/Con_3a [1]: 101%
B21: GpH7-A5/GpH7-B3 variant E333_04F/GpL16-k0 (antibody, human IgG1, kappa)
heavy 1: not shown
heavy 2: not shown
light: B6 light
notes: one H chain altered; also called He Ab E333_04F

Ho/Con_3a [2]: 145%
B25: GpH7-B3 variant S267_02A/GpL16-k0 (antibody, human IgG1, kappa)
heavy: not shown
light: B6 light
notes: both H chains altered; also called Ho Ab S267_02A

He/Con_3a [1]: 113%
B30: GpH7-A5/GpH7-B3 variant P271_01G/GpL16-k0 (antibody, human IgG1, kappa)
heavy 1: not shown
heavy 2: not shown
light: B6 light
notes: one H chain altered; also called He Ab P271_01G

Ho/Con_3a [2]: 114%
B32: GpH7-B3 variant K326_08L/GpL16-k0 (antibody, human IgG1, kappa)
heavy: not shown
light: B6 light
notes: both H chains altered; also called Ho Ab K326_08L

He/Con_3a [1]: 103%
B34: GpH7-A5/GpH7-B3 variant E333_13S/GpL16-k0 (antibody, human IgG1, kappa)
heavy 1: not shown
heavy 2: not shown
light: B6 light
notes: one H chain altered; also called He Ab E333_13S

Ho/Con_3a [2]: 100%
B37: GpH7-B3 variant S324_15Y/GpL16-k0 (antibody, human IgG1, kappa)
heavy: not shown
light: B6 light
notes: both H chains altered; also called Ho Ab S324_15Y

He/Con_3a [1]: 121%
B38: GpH7-A5/GpH7-B3 variant G236_15Y/GpL16-k0 (antibody, human IgG1, kappa)
heavy 1: not shown
heavy 2: not shown
light: B6 light
notes: one H chain altered; also called He Ab G236_15Y

Ho/Con_3a [2]: 100%
B39: GpH7-B3 variant S337_10E/GpL16-k0 (antibody, human IgG1, kappa)
heavy: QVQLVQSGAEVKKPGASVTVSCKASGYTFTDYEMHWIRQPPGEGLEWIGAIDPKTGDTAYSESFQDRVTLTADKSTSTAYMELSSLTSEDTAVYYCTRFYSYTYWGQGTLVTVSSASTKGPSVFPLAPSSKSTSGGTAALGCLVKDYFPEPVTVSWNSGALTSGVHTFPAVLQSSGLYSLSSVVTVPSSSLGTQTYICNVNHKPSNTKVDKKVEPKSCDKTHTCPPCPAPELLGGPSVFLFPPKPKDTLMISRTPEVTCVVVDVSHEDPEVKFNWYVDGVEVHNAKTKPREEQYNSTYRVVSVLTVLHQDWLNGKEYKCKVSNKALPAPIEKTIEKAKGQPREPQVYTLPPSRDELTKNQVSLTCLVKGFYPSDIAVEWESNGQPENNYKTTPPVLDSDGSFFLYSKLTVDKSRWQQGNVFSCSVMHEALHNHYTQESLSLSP
light: B6 light
notes: both H chains altered; also called Ho Ab S337_10E

Ho/Con_3a [2]: 90.5%
B42: GpH7-B3 variant V266_08L/GpL16-k0 (antibody, human IgG1, kappa)
heavy: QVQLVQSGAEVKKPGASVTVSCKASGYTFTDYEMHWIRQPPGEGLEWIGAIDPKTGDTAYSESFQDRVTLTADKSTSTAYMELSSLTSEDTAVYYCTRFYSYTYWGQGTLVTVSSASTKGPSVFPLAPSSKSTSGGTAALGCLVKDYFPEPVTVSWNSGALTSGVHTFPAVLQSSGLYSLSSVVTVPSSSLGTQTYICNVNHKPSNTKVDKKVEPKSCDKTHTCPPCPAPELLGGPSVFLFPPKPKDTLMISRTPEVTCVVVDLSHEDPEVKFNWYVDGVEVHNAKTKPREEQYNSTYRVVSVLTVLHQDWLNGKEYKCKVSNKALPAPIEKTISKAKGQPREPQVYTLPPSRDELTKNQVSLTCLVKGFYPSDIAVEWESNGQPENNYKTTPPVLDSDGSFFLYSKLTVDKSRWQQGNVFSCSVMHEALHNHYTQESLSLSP
light: B6 light
notes: both H chains altered; also called Ho Ab V266_08L

He/Con_3a [1]: 101%
B43: GpH7-A5/GpH7-B3 variant I332_06M/GpL16-k0 (antibody, human IgG1, kappa)
heavy 1: not shown
heavy 2: not shown
light: B6 light
notes: one H chain altered; also called He Ab I332_06M

The next lines start with the binder.

B1: GpH7-A5/GpH7-B3 variant A330_05P/GpL16-k0 (antibody, human IgG1, kappa)
heavy 1: not shown
heavy 2: not shown
light: B6 light
notes: one H chain altered; also called He Ab A330_05P
He/Con_3a [1]: 155%

B2: GpH7-B3 variant S267_09D/GpL16-k0 (antibody, human IgG1, kappa)
heavy: not shown
light: B6 light
notes: both H chains altered; also called Ho Ab S267_09D
Ho/Con_3a [2]: 160%

B3: GpH7-A5/GpH7-B3 variant H268_18N/GpL16-k0 (antibody, human IgG1, kappa)
heavy 1: not shown
heavy 2: not shown
light: B6 light
notes: one H chain altered; also called He Ab H268_18N
He/Con_3a [1]: 104%

B4: GpH7-A5/GpH7-B3 variant I336_08L/GpL16-k0 (antibody, human IgG1, kappa)
heavy 1: not shown
heavy 2: not shown
light: B6 light
notes: one H chain altered; also called He Ab I336_08L
He/Con_3a [1]: 106%

B5: GpH7-A5/GpH7-B3 variant E333_02A/GpL16-k0 (antibody, human IgG1, kappa)
heavy 1: not shown
heavy 2: not shown
light: B6 light
notes: one H chain altered; also called He Ab E333_02A
He/Con_3a [1]: 105%

B7: GpH7-B3 variant S324_16H/GpL16-k0 (antibody, human IgG1, kappa)
heavy: not shown
light: B6 light
notes: both H chains altered; also called Ho Ab S324_16H
Ho/Con_3a [2]: 103%

B9: GpH7-B3 variant T335_07I/GpL16-k0 (antibody, human IgG1, kappa)
heavy: not shown
light: B6 light
notes: both H chains altered; also called Ho Ab T335_07I
Ho/Con_3a [2]: 107%

B10: GpH7-B3 variant I336_06M/GpL16-k0 (antibody, human IgG1, kappa)
heavy: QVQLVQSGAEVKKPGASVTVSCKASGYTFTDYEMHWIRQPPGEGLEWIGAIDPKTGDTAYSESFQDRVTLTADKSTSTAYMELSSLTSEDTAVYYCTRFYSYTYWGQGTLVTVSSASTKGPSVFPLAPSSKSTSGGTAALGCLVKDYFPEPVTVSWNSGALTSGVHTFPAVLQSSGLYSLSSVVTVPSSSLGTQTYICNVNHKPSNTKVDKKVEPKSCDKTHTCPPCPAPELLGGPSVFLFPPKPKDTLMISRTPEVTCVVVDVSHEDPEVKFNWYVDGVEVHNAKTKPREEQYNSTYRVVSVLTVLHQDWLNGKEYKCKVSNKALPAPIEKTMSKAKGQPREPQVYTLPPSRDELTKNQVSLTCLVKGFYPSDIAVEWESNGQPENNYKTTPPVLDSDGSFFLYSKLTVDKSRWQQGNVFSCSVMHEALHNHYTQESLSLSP
light: B6 light
notes: both H chains altered; also called Ho Ab I336_06M
Ho/Con_3a [2]: 107%

B12: GpH7-B3 variant S337_09D/GpL16-k0 (antibody, human IgG1, kappa)
heavy: not shown
light: B6 light
notes: both H chains altered; also called Ho Ab S337_09D
Ho/Con_3a [2]: 106%

B13: GpH7-B3 variant E333_09D/GpL16-k0 (antibody, human IgG1, kappa)
heavy: not shown
light: B6 light
notes: both H chains altered; also called Ho Ab E333_09D
Ho/Con_3a [2]: 109%

B15: GpH7-B3 variant I336_18N/GpL16-k0 (antibody, human IgG1, kappa)
heavy: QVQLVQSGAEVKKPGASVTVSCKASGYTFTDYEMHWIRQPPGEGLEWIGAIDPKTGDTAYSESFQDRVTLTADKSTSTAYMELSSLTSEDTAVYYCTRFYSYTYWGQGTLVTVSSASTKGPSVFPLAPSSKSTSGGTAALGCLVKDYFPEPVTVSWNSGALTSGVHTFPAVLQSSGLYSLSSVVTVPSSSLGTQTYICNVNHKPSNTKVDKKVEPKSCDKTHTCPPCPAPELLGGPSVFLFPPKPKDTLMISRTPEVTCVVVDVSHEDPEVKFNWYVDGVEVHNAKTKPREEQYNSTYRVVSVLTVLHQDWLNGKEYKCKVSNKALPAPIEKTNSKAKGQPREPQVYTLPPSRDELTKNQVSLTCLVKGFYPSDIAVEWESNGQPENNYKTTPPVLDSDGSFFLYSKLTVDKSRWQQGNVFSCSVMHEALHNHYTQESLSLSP
light: B6 light
notes: both H chains altered; also called Ho Ab I336_18N
Ho/Con_3a [2]: 101%

B16: GpH7-B3 variant T335_10E/GpL16-k0 (antibody, human IgG1, kappa)
heavy: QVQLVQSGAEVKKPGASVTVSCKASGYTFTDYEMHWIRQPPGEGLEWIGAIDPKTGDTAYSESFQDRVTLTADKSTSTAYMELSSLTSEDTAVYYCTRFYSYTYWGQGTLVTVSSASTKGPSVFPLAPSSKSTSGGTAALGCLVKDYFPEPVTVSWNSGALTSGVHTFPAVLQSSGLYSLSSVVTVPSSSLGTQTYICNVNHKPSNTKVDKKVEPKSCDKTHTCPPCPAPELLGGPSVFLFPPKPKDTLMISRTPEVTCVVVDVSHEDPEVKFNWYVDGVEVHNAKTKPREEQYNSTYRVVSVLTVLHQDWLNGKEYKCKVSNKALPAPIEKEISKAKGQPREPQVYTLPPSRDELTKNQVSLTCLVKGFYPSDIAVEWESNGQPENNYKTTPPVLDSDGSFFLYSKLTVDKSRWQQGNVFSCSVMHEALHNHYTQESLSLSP
light: B6 light
notes: both H chains altered; also called Ho Ab T335_10E
Ho/Con_3a [2]: 102%

B17: GpH7-B3 variant Q295_14T/GpL16-k0 (antibody, human IgG1, kappa)
heavy: not shown
light: B6 light
notes: both H chains altered; also called Ho Ab Q295_14T
Ho/Con_3a [2]: 108%

B19: GpH7-B3 variant S337_18N/GpL16-k0 (antibody, human IgG1, kappa)
heavy: not shown
light: B6 light
notes: both H chains altered; also called Ho Ab S337_18N
Ho/Con_3a [2]: 102%

B20: GpH7-A5/GpH7-B3 variant L234_04F/GpL16-k0 (antibody, human IgG1, kappa)
heavy 1: not shown
heavy 2: not shown
light: B6 light
notes: one H chain altered; also called He Ab L234_04F
He/Con_3a [1]: 118%

B22: GpH7-B3 variant K326_07I/GpL16-k0 (antibody, human IgG1, kappa)
heavy: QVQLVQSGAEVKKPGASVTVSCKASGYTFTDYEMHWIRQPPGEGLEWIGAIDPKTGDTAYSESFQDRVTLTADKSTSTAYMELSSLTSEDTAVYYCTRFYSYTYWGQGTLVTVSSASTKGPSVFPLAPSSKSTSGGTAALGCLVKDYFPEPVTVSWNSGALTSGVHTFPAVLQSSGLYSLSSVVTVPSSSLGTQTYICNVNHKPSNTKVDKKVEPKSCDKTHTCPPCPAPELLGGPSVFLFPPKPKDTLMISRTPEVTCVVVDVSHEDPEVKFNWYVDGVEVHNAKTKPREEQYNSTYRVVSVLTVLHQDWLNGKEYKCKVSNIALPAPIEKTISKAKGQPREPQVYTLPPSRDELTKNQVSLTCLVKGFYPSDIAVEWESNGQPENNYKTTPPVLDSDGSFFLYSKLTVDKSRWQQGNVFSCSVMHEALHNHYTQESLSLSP
light: B6 light
notes: both H chains altered; also called Ho Ab K326_07I
Ho/Con_3a [2]: 134%

B23: GpH7-A5/GpH7-B3 variant E333_20W/GpL16-k0 (antibody, human IgG1, kappa)
heavy 1: not shown
heavy 2: not shown
light: B6 light
notes: one H chain altered; also called He Ab E333_20W
He/Con_3a [1]: 101%

B24: GpH7-B3 variant T335_20W/GpL16-k0 (antibody, human IgG1, kappa)
heavy: not shown
light: B6 light
notes: both H chains altered; also called Ho Ab T335_20W
Ho/Con_3a [2]: 91.8%

B26: GpH7-A5/GpH7-B3 variant P238_09D/GpL16-k0 (antibody, human IgG1, kappa)
heavy 1: not shown
heavy 2: not shown
light: B6 light
notes: one H chain altered; also called He Ab P238_09D
He/Con_3a [1]: 106%

B27: GpH7-B3 variant K334_01G/GpL16-k0 (antibody, human IgG1, kappa)
heavy: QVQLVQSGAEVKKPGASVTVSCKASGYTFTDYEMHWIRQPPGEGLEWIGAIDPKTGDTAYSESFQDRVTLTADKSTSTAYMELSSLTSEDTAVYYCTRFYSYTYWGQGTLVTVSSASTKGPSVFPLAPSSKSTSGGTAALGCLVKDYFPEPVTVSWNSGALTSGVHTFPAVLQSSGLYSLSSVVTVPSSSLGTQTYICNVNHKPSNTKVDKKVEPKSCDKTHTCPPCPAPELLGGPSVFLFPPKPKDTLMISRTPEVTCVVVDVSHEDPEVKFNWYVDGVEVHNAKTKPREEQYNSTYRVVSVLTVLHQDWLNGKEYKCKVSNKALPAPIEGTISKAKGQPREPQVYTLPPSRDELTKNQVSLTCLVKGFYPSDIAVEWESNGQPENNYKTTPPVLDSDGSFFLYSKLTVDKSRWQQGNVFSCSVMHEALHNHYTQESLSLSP
light: B6 light
notes: both H chains altered; also called Ho Ab K334_01G
Ho/Con_3a [2]: 104%

B28: GpH7-A5/GpH7-B3 variant L234_09D/GpL16-k0 (antibody, human IgG1, kappa)
heavy 1: not shown
heavy 2: not shown
light: B6 light
notes: one H chain altered; also called He Ab L234_09D
He/Con_3a [1]: 117%

B29: GpH7-A5/GpH7-B3 variant P238_10E/GpL16-k0 (antibody, human IgG1, kappa)
heavy 1: not shown
heavy 2: not shown
light: B6 light
notes: one H chain altered; also called He Ab P238_10E
He/Con_3a [1]: 105%

B31: GpH7-B3 variant H268_02A/GpL16-k0 (antibody, human IgG1, kappa)
heavy: not shown
light: B6 light
notes: both H chains altered; also called Ho Ab H268_02A
Ho/Con_3a [2]: 118%

B33: GpH7-B3 variant I332_01G/GpL16-k0 (antibody, human IgG1, kappa)
heavy: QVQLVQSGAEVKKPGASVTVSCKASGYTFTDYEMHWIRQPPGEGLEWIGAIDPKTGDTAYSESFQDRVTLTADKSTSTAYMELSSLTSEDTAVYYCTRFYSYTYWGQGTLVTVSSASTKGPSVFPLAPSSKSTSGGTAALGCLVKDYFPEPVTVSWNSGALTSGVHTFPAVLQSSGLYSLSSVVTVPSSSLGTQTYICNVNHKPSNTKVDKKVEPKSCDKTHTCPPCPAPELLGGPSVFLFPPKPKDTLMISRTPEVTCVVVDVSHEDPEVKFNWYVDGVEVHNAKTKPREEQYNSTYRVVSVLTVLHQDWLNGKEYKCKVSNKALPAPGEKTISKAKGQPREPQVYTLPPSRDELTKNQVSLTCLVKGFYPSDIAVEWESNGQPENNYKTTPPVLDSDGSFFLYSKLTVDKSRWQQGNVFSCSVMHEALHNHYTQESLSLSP
light: B6 light
notes: both H chains altered; also called Ho Ab I332_01G
Ho/Con_3a [2]: 104%

B35: GpH7-A5/GpH7-B3 variant L234_20W/GpL16-k0 (antibody, human IgG1, kappa)
heavy 1: not shown
heavy 2: not shown
light: B6 light
notes: one H chain altered; also called He Ab L234_20W
He/Con_3a [1]: 107%

B36: GpH7-B3 variant K334_09D/GpL16-k0 (antibody, human IgG1, kappa)
heavy: not shown
light: B6 light
notes: both H chains altered; also called Ho Ab K334_09D
Ho/Con_3a [2]: 150%

B40: GpH7-B3 variant I336_03V/GpL16-k0 (antibody, human IgG1, kappa)
heavy: not shown
light: B6 light
notes: both H chains altered; also called Ho Ab I336_03V
Ho/Con_3a [2]: 110%

B41: GpH7-A5/GpH7-B3 variant E333_03V/GpL16-k0 (antibody, human IgG1, kappa)
heavy 1: not shown
heavy 2: not shown
light: B6 light
notes: one H chain altered; also called He Ab E333_03V
He/Con_3a [1]: 103%

B44: GpH7-A5/GpH7-B3 variant S324_02A/GpL16-k0 (antibody, human IgG1, kappa)
heavy 1: not shown
heavy 2: not shown
light: B6 light
notes: one H chain altered; also called He Ab S324_02A
He/Con_3a [1]: 104%
